Experimental data reported in paper doi:10.64898/2025.12.13.693833 (bioRxiv, 2025).
One block for each molecule: values may come before it.

Tests used:
PP2A Aα subunit (human) = PP2A Aα subunit (human) (UniProt P30153); test: MST
PP2A Cα subunit [1] = target: T1, PP2A Cα subunit (human, UniProt P67775 2-309); test: BLI
PP2A(B55α) holoenzyme [2] = target: T2, PP2A(B55α) holoenzyme (human, UniProt P30153 1-589; P63151 1-447; P67775 2-309); test: BLI
PP2A Cα subunit [3] = target: T1, PP2A Cα subunit; test: cryo-EM structure
PP2A(B55α) holoenzyme [4] = target: T2, PP2A(B55α) holoenzyme; test: BLI; remark: listed apart in the source

T2 sequence (P30153 whole entry, chain 1 of 3): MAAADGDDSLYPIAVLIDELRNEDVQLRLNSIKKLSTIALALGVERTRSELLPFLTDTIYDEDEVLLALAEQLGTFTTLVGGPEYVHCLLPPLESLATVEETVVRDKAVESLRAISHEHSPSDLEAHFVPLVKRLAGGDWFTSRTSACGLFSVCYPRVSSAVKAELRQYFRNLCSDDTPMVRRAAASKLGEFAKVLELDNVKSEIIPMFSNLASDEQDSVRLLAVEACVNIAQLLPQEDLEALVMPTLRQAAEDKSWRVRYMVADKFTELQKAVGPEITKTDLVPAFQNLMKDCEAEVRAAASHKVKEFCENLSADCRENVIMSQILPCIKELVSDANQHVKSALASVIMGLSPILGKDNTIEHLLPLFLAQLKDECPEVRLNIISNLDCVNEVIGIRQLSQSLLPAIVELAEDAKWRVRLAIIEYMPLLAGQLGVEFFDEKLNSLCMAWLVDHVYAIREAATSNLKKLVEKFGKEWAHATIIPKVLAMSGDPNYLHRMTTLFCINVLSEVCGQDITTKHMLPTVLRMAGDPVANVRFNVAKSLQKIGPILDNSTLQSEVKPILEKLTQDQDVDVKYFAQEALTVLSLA
T2 sequence (P63151 whole entry, chain 2 of 3): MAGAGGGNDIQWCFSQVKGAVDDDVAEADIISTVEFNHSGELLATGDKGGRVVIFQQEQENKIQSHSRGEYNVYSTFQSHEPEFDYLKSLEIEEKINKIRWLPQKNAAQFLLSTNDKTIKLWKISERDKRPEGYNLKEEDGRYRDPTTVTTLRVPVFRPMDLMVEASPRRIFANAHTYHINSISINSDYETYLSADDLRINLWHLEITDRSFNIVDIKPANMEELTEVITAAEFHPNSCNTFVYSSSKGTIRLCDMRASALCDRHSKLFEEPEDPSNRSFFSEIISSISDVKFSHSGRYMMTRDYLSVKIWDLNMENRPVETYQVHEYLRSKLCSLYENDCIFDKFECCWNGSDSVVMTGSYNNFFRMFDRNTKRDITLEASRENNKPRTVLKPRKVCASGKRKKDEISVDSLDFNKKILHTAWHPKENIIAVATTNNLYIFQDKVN
T2 sequence (P67775 2-309, chain 3 of 3): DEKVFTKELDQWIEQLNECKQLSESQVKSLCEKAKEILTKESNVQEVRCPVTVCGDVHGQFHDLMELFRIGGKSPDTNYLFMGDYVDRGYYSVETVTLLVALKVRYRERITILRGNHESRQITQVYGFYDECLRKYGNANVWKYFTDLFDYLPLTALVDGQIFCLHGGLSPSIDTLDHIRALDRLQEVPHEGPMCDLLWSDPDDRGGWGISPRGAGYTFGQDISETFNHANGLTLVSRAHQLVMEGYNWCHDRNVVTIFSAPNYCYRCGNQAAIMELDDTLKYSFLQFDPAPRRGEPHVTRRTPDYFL
T1 sequence (P67775 2-309): as the sequence (P67775 2-309, chain 3 of 3) above
Sequence of PP2A Aα subunit (human) (P30153 whole entry): as the sequence (P30153 whole entry, chain 1 of 3) above

B1: GST-ENSA^S67D-His6 (natural protein, human, UniProt O43768 1-121, looked up)
chain: MSQKQEEENPAEETGEEKQDTQEKEGILPERAEEAKLKAKYPSLGQKPGGSDFLMKRLQKGQKYFDDGDYNMAKAKMKNKQLPSAGPDKNLVTGDHIPTPQDLPQRKSSLVTSKLAGGQVE
binding result (PP2A Cα subunit [1]): binds
Kd (PP2A(B55α) holoenzyme [2]): 0.66 µM

B2: His6-TEV site-ENSA^S67D (natural protein, human, UniProt O43768 1-121, looked up)
chain: MSQKQEEENPAEETGEEKQDTQEKEGILPERAEEAKLKAKYPSLGQKPGGSDFLMKRLQKGQKYFDDGDYNMAKAKMKNKQLPSAGPDKNLVTGDHIPTPQDLPQRKSSLVTSKLAGGQVE
binding result (PP2A Cα subunit [3]): binds

B4: GST-ENSA^WT-His6 (natural protein, human, UniProt O43768 1-121, looked up)
chain: MSQKQEEENPAEETGEEKQDTQEKEGILPERAEEAKLKAKYPSLGQKPGGSDFLMKRLQKGQKYFDSGDYNMAKAKMKNKQLPSAGPDKNLVTGDHIPTPQDLPQRKSSLVTSKLAGGQVE
Kd (PP2A(B55α) holoenzyme [2]): 1.45 µM

Results, then the molecule that gave them:

Kd (PP2A Aα subunit (human)): 600 µM
Molecule: tag-free ENSA^WT (from UniProt O43768 1-121) (natural protein)

Kd (PP2A Aα subunit (human)): 800 µM
Molecule: tag-free ENSA^S67D (from UniProt O43768 1-121) (natural protein)

binding result (PP2A(B55α) holoenzyme [4]): binds
B3: GST-ENSA^S67D K40A-His6 (natural protein, human, UniProt O43768 1-121, looked up)
chain: MSQKQEEENPAEETGEEKQDTQEKEGILPERAEEAKLKAAYPSLGQKPGGSDFLMKRLQKGQKYFDDGDYNMAKAKMKNKQLPSAGPDKNLVTGDHIPTPQDLPQRKSSLVTSKLAGGQVE

binding result (PP2A(B55α) holoenzyme [4]): binds
B5: GST-ENSA^S67D E30A-His6 (natural protein, human, UniProt O43768 1-121, looked up)
chain: MSQKQEEENPAEETGEEKQDTQEKEGILPARAEEAKLKAKYPSLGQKPGGSDFLMKRLQKGQKYFDDGDYNMAKAKMKNKQLPSAGPDKNLVTGDHIPTPQDLPQRKSSLVTSKLAGGQVE

binding result (PP2A(B55α) holoenzyme [4]): binds
B6: GST-ENSA^S67D R57A-His6 (natural protein, human, UniProt O43768 1-121, looked up)
chain: MSQKQEEENPAEETGEEKQDTQEKEGILPERAEEAKLKAKYPSLGQKPGGSDFLMKALQKGQKYFDDGDYNMAKAKMKNKQLPSAGPDKNLVTGDHIPTPQDLPQRKSSLVTSKLAGGQVE
